Biological target: HA-tagged Mincle (macrophage-inducible C-type lectin, CLEC4E) (UniProt Q9ULY5)
Experiment: MST

Chain of UniProt Q9ULY5 (Q9ULY5 whole entry): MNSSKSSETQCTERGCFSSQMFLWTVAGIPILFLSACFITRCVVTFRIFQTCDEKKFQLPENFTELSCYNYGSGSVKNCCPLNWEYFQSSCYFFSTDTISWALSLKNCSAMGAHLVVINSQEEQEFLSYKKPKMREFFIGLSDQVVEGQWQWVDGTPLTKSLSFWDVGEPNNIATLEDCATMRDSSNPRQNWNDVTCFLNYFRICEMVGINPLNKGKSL

Row | Kd | Substance
1 | 5.7 µM | Fucosylated haptoglobin purified from sepsis patients (from UniProt P00738 162-406; P00738 19-160) (natural protein)
2 | 22.9 µM | Haptoglobin purified from healthy controls (from UniProt P00738 162-406; P00738 19-160) (natural protein)

— PMC11794430
